The test deals with type I collagen. Kind of test: cell-based or functional assay.

The substance elastin showed an unbound DNA in DNA binding assay (1:1 elastin to collagen) of 0.077 µM and an unbound DNA in DNA binding assay (1:2 elastin to collagen) of 0.116 µM.

The values above are taken from patent publication US20240026334A1.
